The labels stand for the following.
B1: anti-idiotype antibody clone 15 (antibody, mouse IgG1, kappa, V domains shown)
VH: QVQLQQSGAELVKPGASVKISCKASGYAFSSYWMNWVKQRPGKGLEWIGQIYPGNGETNNNGKFKGKATLTADISSSTAYMQLSSLTSEDSAVYFCARGGWYFDVWGTGTTVTVSS
VL: DIQMTQSPASLSASVGETVTITCRASENIYSYLAWYQQKQGKSPHLLVYNAYTLAEGVPSRFSGSGSDTQFSLKINSLQPEDFGNYYCQHHYGTPWTFGGGTKVEIKR
notes: Mouse hybridoma antibody, purified; also called anti-ID clone 15
B2: soluble monomeric scFv-Fc fusion protein (scFv from anti-BCMA CAR 2) (Fc fusion)
chain: QSALTQPASVSASPGQSIAISCTGTSSDVGWYQQHPGKAPKLMIYEDSKRPSGVSNRFSGSKSGNTASLTISGLQAEDEADYYCSSNTRSSTLVFGGGTKLTVLGSRGGGGSGGGGSGGGGSLEMAEVQLVQSGAEMKKPGASLKLSCKASGYTFIDYYVYWMRQAPGQGLESMGWINPNSGGTNYAQKFQGRVTMTRDTSISTAYMELSRLRSDDTAMYYCARSQRDGYMDYWGQGTLVTVSS
notes: not shown: Fc
B3: soluble dimeric scFv-Fc fusion protein (scFv from anti-BCMA CAR 2) (Fc fusion)
chain: B2 chain
notes: not shown: Fc
B4: anti-BCMA CAR 1 (chimeric antigen receptor with the scFv of anti-BCMA Target Antibody 1) (receptor)
chain: SYELTQPPSASGTPGQRVTMSCSGTSSNIGSHSVNWYQQLPGTAPKLLIYTNNQRPSGVPDRFSGSKSGTSASLAISGLQSEDEADYYCAAWDGSLNGLVFGGGTKLTVLGSRGGGGSGGGGSGGGGSLEMAEVQLVQSGAEVKKPGESLKISCKGSGYSFTSYWIGWVRQMPGKGLEWMGIIYPGDSDTRYSPSFQGHVTISADKSISTAYLQWSSLKASDTAMYYCARYSGSFDNWGQGTLVTVSS
notes: Whole receptor expressed on Jurkat T cells; not shown: human IgG-derived spacer, human CD28-derived transmembrane domain, human 4-1BB-derived intracellular signaling domain an
B5: anti-idiotype antibody clone 19 (antibody, mouse IgG2b, kappa, V domains shown)
VH: QVQLQQSGAELMKPGASVKLSCKATGYTFTAYWIEWVKQRPGHGLEWIGEILPGSGITKYSEKFKGKATFTADTSSNTAYMQLSSLTTEDSAIYYCARDYYSDNYWGQGTSVTVSS
VL: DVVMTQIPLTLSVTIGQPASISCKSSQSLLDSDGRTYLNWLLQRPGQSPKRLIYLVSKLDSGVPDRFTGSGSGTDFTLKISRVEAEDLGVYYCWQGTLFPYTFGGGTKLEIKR
notes: Mouse hybridoma antibody, purified; also called anti-ID clone 19
B6: anti-idiotype antibody clone 10 (antibody, mouse IgG1, kappa, V domains shown)
VH: EVKLLESGGGLVQPGGSLKLSCAASGFDFSRYWMSWVRQAPGKGLEWIGEINPDSSTINYTPSLKDKFIISRDNAKNTLYLQMSKVRSEDTALYYCARHGYYWYFDVWGAGTTVTVSS
VL: DIQMTQTTSSLSASLGDRVTISCRASQDISNYLNWYQQKPDGTVKLLIYYTSRLHSGVPSRFSGSGSGTDYSLTISNLEQEDIATYFCQQGNTLPYTFGGGTKLEIKR
notes: Mouse hybridoma antibody raised against the anti-BCMA CAR 1 scFv fused to mouse Fc and purified; Detected with a goat anti-mouse IgG secondary antibody; also called anti-ID clone 10
B7: anti-idiotype antibody clone 16 (antibody, mouse IgG1, kappa, V domains shown)
VH: QVQLQQSGPELVKPGASVKISCKASGYTFTDFYINWVKQRPGQGLEWIGWIFPRSGSTYYNEKFKGKATLSVDKSSITAYMLLSSLTSEDSAVYFCARGDGYSGAMDYWGQGTSVTVSS
VL: B6 VL with R24S, D28G, S30R, R53N, Q80P, F87Y, G91Y, T93N, Y96R
notes: Mouse hybridoma antibody, purified; also called anti-ID clone 16

Test [1] addresses B3. The experiment in a line: SPR, BIAcore T200, against dimeric scFv-Fc. As for the experimental part:
(§1) Off rates and equilibrium dissociation constants were determined against a soluble monomeric scFv-Fc fusion protein as well as against a soluble dimeric scFv-Fc fusion protein. For comparison, the kinetics and affinity of soluble monomeric and dimeric BCMA-human Fc fusion proteins were also assessed against the monomeric and dimeric scFv-Fc fusion proteins, respectively. Off rates and equilibrium dissociation constants were determined using a BIAcore T200 instrument.

In test [2] the target is B2. Briefly: SPR, BIAcore T200, against monomeric scFv-Fc. As to the method:
as §1
(In general: Surface plasmon resonance follows binding to a sensor surface in real time, without labels.)

Test [3] concerns the target B4. Briefly: flow cytometry; Jurkat T cells expressing anti-BCMA CAR 1, 2.5 µg/mL anti-ID conjugated to Alexa Fluor 647, 20 min at 4 °C.
Test [4] addresses T1, soluble monomeric BCMA-human Fc fusion protein (UniProt Q02223 1-54, limits assumed).
T1 construct: also called Monomeric BCMA-Fc; not shown: human Fc
T1 sequence (looked up): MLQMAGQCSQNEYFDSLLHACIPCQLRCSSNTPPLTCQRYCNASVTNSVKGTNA
Briefly: SPR, BIAcore T200, against monomeric scFv-Fc. As to the method: as §1

Test [5] addresses T2, soluble dimeric BCMA-human Fc fusion protein (UniProt Q02223 1-54, limits assumed).
T2 construct: also called Dimeric BCMA-Fc; not shown: human Fc
T2 sequence (looked up): T1 sequence (looked up)
Briefly: SPR, BIAcore T200, against dimeric scFv-Fc. As to the method: as §1

In test [6] the target is T3, recombinant BCMA-Fc (soluble human BCMA fused at its C-terminus to an Fc region of IgG) fusion polypeptide (human, UniProt Q02223 1-54).
T3 construct: Used as a staining control; also called recombinant BCMA-Fc fusion polypeptide; not shown: Fc region of IgG
T3 sequence (looked up): T1 sequence (looked up)
Briefly: flow cytometry; Jurkat T cells expressing anti-BCMA CAR 1, staining with recombinant BCMA-Fc as control.

Test [7] addresses T4, anti-BCMA CAR 2 (chimeric antigen receptor with the scFv of anti-BCMA Target Antibody 2).
T4 construct: Whole receptor expressed on Jurkat T cells, Nur77-tdTomato reporter cells or primary human T cells; not shown: human IgG2 and IgG4-derived spacer, human CD28-derived transmembrane domain, human 4-1BB-derived intracellular signaling
The experiment in a line: flow cytometry; Jurkat T cells expressing anti-BCMA CAR 2, 5 µg/mL purified anti-ID, goat anti-mouse IgG secondary antibody; parental Jurkat cells as negative. (A flow cytometer gives signals particle by particle.)

The target in test [8] is B4. The experiment in a line: flow cytometry; Jurkat T cells expressing anti-BCMA CAR 1, anti-ID conjugated to Alexa Fluor 647.

The values that follow come from patent US20230028050A1 (JUNO THERAPEUTICS, published 2023).

Numbering of substitutions follows the chain as printed.

For orientation: Kd means the equilibrium constant for the complex coming apart. Lower therefore signals a tighter complex. For orientation: koff means the first-order rate constant of dissociation. In test [1], B1 had a Kd of 2.2 nM and an off-rate constant (koff) of 4.4e-05 s⁻¹. In test [2], binding was put at a Kd of 18 nM and the koff is 0.0036 s⁻¹. Besides, the binding result in test [3] is “binds”.

In test [4], B2 came in with a dissociation constant Kd of 290 nM and a koff of 0.024 s⁻¹.

For the molecule B3, in test [5], the dissociation constant Kd turned out to be 7 nM and the koff worked out at 0.00014 s⁻¹.

B4: the binding result in test [6] is on record as “binds”.

As for B5, in test [1], the Kd amounted to 3.6 nM and the dissociation rate constant (koff) was determined as 6.2e-05 s⁻¹. In test [2], this molecule registered an equilibrium dissociation constant (Kd) of 55 nM and a koff of 0.0081 s⁻¹.

With B6, the binding result in test [7] was “binds”.

In test [1], B7 gave a Kd of 2.6 nM and a koff of 0.00014 s⁻¹. In test [2], this molecule had a Kd of 12 nM and an off-rate constant (koff) of 0.005 s⁻¹. In addition, in test [8], the binding result is “no binding (tested: 2.5 µg/mL)”.
